Measurements: patent US20150344570A1 (published 2015)

B1: GpH7-B3 variant K334_01G/GpL16-k0 (antibody, human IgG1, kappa)
heavy: not shown
light: DIVMTQSPLSLPVTPGEPASISCQASESLVHSNRNTYLHWYLQKPGQSPQLLIYKVSNRFSGVPDRFSGSGSGTDFTLKISRVEAEDVGVYYCSQNTHVPPTFGQGTKVEIERTVAAPSVFIFPPSDEQLKSGTASVVCLLNNFYPREAKVQWKVDNALQSGNSQESVTEQDSKDSTYSLSSTLTLSKADYEKHKVYACEVTHQGLSSPVTKSFNRGEC
notes: also called Ho Ab K334_01G
B2: GpH7-B3 variant A330_04F/GpL16-k0 (antibody, human IgG1, kappa)
heavy: not shown
light: B1 light
notes: also called Ho Ab A330_04F
B3: GpH7-B3 variant A330_08L/GpL16-k0 (antibody, human IgG1, kappa)
heavy: not shown
light: B1 light
notes: also called Ho Ab A330_08L
B4: GpH7-B3 variant A330_20W/GpL16-k0 (antibody, human IgG1, kappa)
heavy: not shown
light: B1 light
notes: also called Ho Ab A330_20W
B5: GpH7-B3 variant E333_16H/GpL16-k0 (antibody, human IgG1, kappa)
heavy: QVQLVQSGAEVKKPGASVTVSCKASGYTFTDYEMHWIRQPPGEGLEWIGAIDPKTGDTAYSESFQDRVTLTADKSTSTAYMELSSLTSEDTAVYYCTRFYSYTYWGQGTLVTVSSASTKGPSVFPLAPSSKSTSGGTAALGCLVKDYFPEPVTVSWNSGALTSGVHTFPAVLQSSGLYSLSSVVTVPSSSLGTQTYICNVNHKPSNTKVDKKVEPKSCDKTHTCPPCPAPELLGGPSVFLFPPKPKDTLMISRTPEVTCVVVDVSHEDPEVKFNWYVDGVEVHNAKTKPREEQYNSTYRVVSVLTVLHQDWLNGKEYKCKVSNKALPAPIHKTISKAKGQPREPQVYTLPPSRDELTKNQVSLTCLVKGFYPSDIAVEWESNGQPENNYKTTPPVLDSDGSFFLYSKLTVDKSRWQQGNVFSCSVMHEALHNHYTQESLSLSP
light: B1 light
notes: also called Ho Ab E333_16H
B6: GpH7-B3 variant H268_09D/GpL16-k0 (antibody, human IgG1, kappa)
heavy: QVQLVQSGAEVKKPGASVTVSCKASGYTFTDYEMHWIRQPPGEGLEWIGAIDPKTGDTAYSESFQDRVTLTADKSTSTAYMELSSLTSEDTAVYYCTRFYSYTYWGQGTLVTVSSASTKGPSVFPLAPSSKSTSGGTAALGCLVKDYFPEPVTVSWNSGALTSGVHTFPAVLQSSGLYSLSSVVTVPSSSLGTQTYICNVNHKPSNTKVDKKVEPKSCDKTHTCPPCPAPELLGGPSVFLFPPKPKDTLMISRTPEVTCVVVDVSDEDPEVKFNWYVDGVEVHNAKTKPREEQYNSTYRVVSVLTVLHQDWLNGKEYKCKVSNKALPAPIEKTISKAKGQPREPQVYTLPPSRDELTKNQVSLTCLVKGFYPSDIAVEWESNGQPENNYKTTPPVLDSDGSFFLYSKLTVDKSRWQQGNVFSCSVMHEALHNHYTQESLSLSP
light: B1 light
notes: also called Ho Ab H268_09D
B7: GpH7-B3 variant H268_10E/GpL16-k0 (antibody, human IgG1, kappa)
heavy: not shown
light: B1 light
notes: also called Ho Ab H268_10E
B8: GpH7-B3 variant H268_13S/GpL16-k0 (antibody, human IgG1, kappa)
heavy: not shown
light: B1 light
notes: also called Ho Ab H268_13S
B9: GpH7-B3 variant I332_01G/GpL16-k0 (antibody, human IgG1, kappa)
heavy: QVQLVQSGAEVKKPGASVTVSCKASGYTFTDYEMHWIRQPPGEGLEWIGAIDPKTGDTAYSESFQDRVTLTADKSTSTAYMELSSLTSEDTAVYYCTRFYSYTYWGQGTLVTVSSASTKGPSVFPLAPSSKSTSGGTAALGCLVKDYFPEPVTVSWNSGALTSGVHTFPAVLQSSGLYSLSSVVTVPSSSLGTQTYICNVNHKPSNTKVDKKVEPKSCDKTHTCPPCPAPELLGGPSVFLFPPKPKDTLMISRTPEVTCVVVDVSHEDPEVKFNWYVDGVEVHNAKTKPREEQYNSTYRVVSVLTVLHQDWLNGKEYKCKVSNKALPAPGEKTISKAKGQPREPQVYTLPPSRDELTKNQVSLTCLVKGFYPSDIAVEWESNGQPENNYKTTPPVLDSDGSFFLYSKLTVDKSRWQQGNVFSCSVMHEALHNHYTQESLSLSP
light: B1 light
notes: also called Ho Ab I332_01G
B10: GpH7-B3 variant I332_02A/GpL16-k0 (antibody, human IgG1, kappa)
heavy: not shown
light: B1 light
notes: also called Ho Ab I332_02A
B11: GpH7-B3 variant I332_09D/GpL16-k0 (antibody, human IgG1, kappa)
heavy: not shown
light: B1 light
notes: also called Ho Ab I332_09D
B12: GpH7-B3 variant I332_10E/GpL16-k0 (antibody, human IgG1, kappa)
heavy: not shown
light: B1 light
notes: also called Ho Ab I332_10E
B13: GpH7-B3 variant I332_13S/GpL16-k0 (antibody, human IgG1, kappa)
heavy: not shown
light: B1 light
notes: also called Ho Ab I332_13S
B14: GpH7-B3 variant I332_14T/GpL16-k0 (antibody, human IgG1, kappa)
heavy: not shown
light: B1 light
notes: also called Ho Ab I332_14T
B15: GpH7-B3 variant I332_15Y/GpL16-k0 (antibody, human IgG1, kappa)
heavy: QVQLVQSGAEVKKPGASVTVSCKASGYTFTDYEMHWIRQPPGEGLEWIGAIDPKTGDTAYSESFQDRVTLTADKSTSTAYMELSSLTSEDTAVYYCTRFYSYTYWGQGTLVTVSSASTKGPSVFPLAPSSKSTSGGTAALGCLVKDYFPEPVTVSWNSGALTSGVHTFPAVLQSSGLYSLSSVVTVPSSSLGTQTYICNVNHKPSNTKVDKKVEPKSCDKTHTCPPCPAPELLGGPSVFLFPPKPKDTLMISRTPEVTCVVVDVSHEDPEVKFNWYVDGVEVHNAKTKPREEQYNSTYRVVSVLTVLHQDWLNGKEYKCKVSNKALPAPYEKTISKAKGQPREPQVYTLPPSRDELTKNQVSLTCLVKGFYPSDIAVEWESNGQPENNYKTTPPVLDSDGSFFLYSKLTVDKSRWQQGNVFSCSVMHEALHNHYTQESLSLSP
light: B1 light
notes: also called Ho Ab I332_15Y
B16: GpH7-B3 variant I332_19Q/GpL16-k0 (antibody, human IgG1, kappa)
heavy: not shown
light: B1 light
notes: also called Ho Ab I332_19Q
B17: GpH7-B3 variant I336_02A/GpL16-k0 (antibody, human IgG1, kappa)
heavy: not shown
light: B1 light
notes: also called Ho Ab I336_02A
B18: GpH7-B3 variant I336_03V/GpL16-k0 (antibody, human IgG1, kappa)
heavy: not shown
light: B1 light
notes: also called Ho Ab I336_03V
B19: GpH7-B3 variant I336_06M/GpL16-k0 (antibody, human IgG1, kappa)
heavy: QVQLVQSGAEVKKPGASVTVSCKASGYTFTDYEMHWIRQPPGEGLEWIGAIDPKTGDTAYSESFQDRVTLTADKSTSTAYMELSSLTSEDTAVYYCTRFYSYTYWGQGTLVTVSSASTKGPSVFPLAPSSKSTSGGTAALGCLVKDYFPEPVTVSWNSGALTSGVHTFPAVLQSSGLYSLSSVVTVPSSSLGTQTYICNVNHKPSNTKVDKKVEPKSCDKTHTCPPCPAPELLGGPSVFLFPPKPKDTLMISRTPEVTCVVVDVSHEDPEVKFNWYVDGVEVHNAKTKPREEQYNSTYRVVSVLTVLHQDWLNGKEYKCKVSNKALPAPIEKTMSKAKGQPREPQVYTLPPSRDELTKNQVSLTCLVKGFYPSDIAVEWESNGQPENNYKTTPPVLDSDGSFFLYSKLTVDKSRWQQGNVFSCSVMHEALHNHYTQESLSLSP
light: B1 light
notes: also called Ho Ab I336_06M
B20: GpH7-B3 variant I336_09D/GpL16-k0 (antibody, human IgG1, kappa)
heavy: not shown
light: B1 light
notes: also called Ho Ab I336_09D
B21: GpH7-B3 variant I336_10E/GpL16-k0 (antibody, human IgG1, kappa)
heavy: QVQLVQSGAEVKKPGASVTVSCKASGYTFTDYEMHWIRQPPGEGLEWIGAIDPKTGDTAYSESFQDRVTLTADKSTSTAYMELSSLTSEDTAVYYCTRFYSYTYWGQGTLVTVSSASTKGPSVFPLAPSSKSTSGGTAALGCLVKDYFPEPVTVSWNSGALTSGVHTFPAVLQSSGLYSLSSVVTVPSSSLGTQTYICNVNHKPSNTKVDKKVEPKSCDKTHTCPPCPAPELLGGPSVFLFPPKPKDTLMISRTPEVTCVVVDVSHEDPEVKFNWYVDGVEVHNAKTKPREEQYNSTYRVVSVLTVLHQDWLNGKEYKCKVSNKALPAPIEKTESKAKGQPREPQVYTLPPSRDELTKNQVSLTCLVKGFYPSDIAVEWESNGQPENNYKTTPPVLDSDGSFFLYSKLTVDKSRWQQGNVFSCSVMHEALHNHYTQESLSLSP
light: B1 light
notes: also called Ho Ab I336_10E
B22: GpH7-B3 variant I336_13S/GpL16-k0 (antibody, human IgG1, kappa)
heavy: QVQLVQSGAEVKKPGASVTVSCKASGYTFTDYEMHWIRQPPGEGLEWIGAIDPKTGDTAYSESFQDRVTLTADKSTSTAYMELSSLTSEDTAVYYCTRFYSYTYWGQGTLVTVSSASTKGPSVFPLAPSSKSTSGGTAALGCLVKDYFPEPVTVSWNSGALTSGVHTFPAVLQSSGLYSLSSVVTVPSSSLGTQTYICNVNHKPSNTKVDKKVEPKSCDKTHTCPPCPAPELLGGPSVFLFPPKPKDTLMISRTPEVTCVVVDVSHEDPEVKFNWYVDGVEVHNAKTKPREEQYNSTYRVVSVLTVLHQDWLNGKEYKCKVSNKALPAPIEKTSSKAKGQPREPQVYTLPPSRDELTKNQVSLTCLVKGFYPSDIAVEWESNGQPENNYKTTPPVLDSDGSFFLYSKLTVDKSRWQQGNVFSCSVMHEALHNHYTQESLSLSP
light: B1 light
notes: also called Ho Ab I336_13S
B23: GpH7-B3 variant I336_14T/GpL16-k0 (antibody, human IgG1, kappa)
heavy: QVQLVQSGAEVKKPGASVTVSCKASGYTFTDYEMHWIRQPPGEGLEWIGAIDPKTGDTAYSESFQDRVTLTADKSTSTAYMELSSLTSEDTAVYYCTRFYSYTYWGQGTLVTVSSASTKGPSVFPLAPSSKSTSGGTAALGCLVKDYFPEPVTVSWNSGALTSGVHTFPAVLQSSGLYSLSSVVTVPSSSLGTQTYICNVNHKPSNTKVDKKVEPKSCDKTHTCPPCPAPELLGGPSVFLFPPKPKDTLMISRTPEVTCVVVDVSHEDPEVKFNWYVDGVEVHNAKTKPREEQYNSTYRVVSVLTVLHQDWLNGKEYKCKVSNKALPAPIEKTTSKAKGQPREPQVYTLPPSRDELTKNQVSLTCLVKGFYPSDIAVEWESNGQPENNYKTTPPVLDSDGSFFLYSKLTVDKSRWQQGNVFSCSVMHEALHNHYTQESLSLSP
light: B1 light
notes: also called Ho Ab I336_14T
B24: GpH7-B3 variant I336_18N/GpL16-k0 (antibody, human IgG1, kappa)
heavy: not shown
light: B1 light
notes: also called Ho Ab I336_18N
B25: GpH7-B3 variant K326_03V/GpL16-k0 (antibody, human IgG1, kappa)
heavy: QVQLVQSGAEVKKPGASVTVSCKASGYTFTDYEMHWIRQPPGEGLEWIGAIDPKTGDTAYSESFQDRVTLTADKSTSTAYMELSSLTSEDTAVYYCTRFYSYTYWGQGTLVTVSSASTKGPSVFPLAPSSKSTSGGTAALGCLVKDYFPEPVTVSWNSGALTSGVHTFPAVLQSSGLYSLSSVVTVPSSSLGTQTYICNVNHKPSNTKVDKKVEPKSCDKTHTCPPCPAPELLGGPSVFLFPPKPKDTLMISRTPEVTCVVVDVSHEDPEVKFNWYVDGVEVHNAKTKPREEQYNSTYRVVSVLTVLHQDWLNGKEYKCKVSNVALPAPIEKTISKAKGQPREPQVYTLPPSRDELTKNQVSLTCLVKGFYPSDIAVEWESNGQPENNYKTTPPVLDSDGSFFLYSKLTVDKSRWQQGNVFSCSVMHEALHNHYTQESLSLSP
light: B1 light
notes: also called Ho Ab K326_03V
B26: GpH7-B3 variant K326_04F/GpL16-k0 (antibody, human IgG1, kappa)
heavy: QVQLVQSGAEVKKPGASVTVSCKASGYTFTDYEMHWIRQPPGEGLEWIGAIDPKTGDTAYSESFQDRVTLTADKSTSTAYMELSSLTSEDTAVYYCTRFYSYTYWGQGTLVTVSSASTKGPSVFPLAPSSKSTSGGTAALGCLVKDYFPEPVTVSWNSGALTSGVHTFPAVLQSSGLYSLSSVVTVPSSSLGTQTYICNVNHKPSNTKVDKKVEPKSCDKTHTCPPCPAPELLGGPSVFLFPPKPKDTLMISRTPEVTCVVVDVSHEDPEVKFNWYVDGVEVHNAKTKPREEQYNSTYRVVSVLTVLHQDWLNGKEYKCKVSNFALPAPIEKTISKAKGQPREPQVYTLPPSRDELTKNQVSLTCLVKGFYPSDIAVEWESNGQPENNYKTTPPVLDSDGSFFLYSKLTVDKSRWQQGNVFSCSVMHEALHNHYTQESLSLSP
light: B1 light
notes: also called Ho Ab K326_04F
B27: GpH7-B3 variant K326_06M/GpL16-k0 (antibody, human IgG1, kappa)
heavy: not shown
light: B1 light
notes: also called Ho Ab K326_06M

biological target: T1, FcγRIIIa extracellular domain with C-terminal His tag (human, UniProt P08637 17-208); experiment: SPR Biacore, captured antibody, FcγR analyte, relative binding
T1 construct: extracellular domain; also called FcgRIIIa; 3a; not shown: His tag attached to the C terminus
T1 sequence (P08637 17-208): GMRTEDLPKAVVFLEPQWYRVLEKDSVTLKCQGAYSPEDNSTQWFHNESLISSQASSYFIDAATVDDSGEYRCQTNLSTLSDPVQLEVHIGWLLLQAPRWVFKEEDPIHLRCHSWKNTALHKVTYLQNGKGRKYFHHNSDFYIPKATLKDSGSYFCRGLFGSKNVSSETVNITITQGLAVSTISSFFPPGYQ
Method: Analysis of interaction between objective antibody and the FcγR was carried out using Biacore T100 (GE Healthcare). HBS-EP+ (GE Healthcare) was used as the running buffer, and the measurement temperature was set to 25° C. Chips produced by immobilizing the antigen peptide by the amine coupling method to a Series S Sencor Chip CM5 (GE Healthcare), or alternatively, chips produced by allowing preliminarily biotinylated antigen peptides to interact with and immobilize onto a Series S Sensor Chip SA (certified) (GE Healthcare) were used. Antibodies of interest were captured onto an antigen peptide-immobilized chip, and allowed to interact to each FcγR diluted with running buffer. To regenerate and repeatedly use the chip, the antibodies captured on the chip were washed off by reacting 10 mM glycine-HCl, pH 1.5.

First: B1
Second: B2
The Ho/Con_3a of the first is lower: 104 % of HoCon Ab GpH7-B3/GpL16-k0 (=100) for the first, 174 % of HoCon Ab GpH7-B3/GpL16-k0 (=100) for the second.

Going from B3 to B4, the Ho/Con_3a falls from 138 % of HoCon Ab GpH7-B3/GpL16-k0 (=100) to 118 % of HoCon Ab GpH7-B3/GpL16-k0 (=100).

First: B5
Second: B6
The Ho/Con_3a of the first is lower: 111 % of HoCon Ab GpH7-B3/GpL16-k0 (=100) for the first, 220 % of HoCon Ab GpH7-B3/GpL16-k0 (=100) for the second.

Compared with B7, B8 is lower in Ho/Con_3a: 206 % of HoCon Ab GpH7-B3/GpL16-k0 (=100) for the first, 130 % of HoCon Ab GpH7-B3/GpL16-k0 (=100) for the second.

Compared with B9, B10 is higher in Ho/Con_3a: 104 % of HoCon Ab GpH7-B3/GpL16-k0 (=100) for the first, 114 % of HoCon Ab GpH7-B3/GpL16-k0 (=100) for the second.

First: B11
Second: B12
The Ho/Con_3a of the first is lower: 255 % of HoCon Ab GpH7-B3/GpL16-k0 (=100) for the first, 278 % of HoCon Ab GpH7-B3/GpL16-k0 (=100) for the second.

Compared with B13, B14 is higher in Ho/Con_3a: 112 % of HoCon Ab GpH7-B3/GpL16-k0 (=100) for the first, 138 % of HoCon Ab GpH7-B3/GpL16-k0 (=100) for the second.

Going from B15 to B16, the Ho/Con_3a rises from 106 % of HoCon Ab GpH7-B3/GpL16-k0 (=100) to 118 % of HoCon Ab GpH7-B3/GpL16-k0 (=100).

First: B17
Second: B18
The Ho/Con_3a of the first is lower: 104 % of HoCon Ab GpH7-B3/GpL16-k0 (=100) for the first, 110 % of HoCon Ab GpH7-B3/GpL16-k0 (=100) for the second.

First: B19
Second: B20
The Ho/Con_3a of the first is lower: 107 % of HoCon Ab GpH7-B3/GpL16-k0 (=100) for the first, 111 % of HoCon Ab GpH7-B3/GpL16-k0 (=100) for the second.

Going from B21 to B22, the Ho/Con_3a falls from 130 % of HoCon Ab GpH7-B3/GpL16-k0 (=100) to 119 % of HoCon Ab GpH7-B3/GpL16-k0 (=100).

First: B23
Second: B24
The Ho/Con_3a of the first is higher: 123 % of HoCon Ab GpH7-B3/GpL16-k0 (=100) for the first, 101 % of HoCon Ab GpH7-B3/GpL16-k0 (=100) for the second.

Going from B25 to B26, the Ho/Con_3a falls from 137 % of HoCon Ab GpH7-B3/GpL16-k0 (=100) to 103 % of HoCon Ab GpH7-B3/GpL16-k0 (=100).

For B27, the Ho/Con_3a was 129 % of HoCon Ab GpH7-B3/GpL16-k0 (=100).
